The target in the experiment is FLAG-Nrxn1β(−SS4) (UniProt Q63373). In words: cell surface binding with Scatchard analysis.

On to “SorCS1-ecto-His (from UniProt Q9JLC4 34-1098) (domain or fragment)”, for which the Kd was found to be 2.22 nM.

Usually Kd stands for a measure of binding affinity in units of concentration.
